Results on five molecules are retold here after paper PMC6698841.

Assay [1] deals with Variant 1051 (control; L234A/L235A on both heavy chains) (human). As to the kind of experiment: SPR; ProteOn XPR36, 25 °C; 10 mM HEPES, 150 mM NaCl, 3.4 mM EDTA, 0.05% Tween 20, pH 7.4; trastuzumab variants captured (approx. 500 RU) on amine-coupled recombinant HER-2 (GLM chip); FcγRs injected as analyte, five concentrations in 3-fold dilution; Equilibrium Fit model, mean of two or three runs.

Assay [2] deals with Control Rituximab v1261 (anti-CD20 rituximab with heterodimerising CH3 mutations, no CH2 mutations) (human). As to the kind of experiment: SPR; ProteOn XPR36, 25 °C; 10 mM HEPES, 150 mM NaCl, 3.4 mM EDTA, 0.05% Tween 20, pH 7.4; rituximab variants captured on amine-coupled goat anti-human Fc; FcγRs injected as analyte, five concentrations in 3-fold dilution; Equilibrium Fit model; ratios against homodimeric trastuzumab WT.

The target of assay [3] is Variant 791 (trastuzumab with heterodimerising CH3 mutations only, no CH2 mutations) (human). In words: SPR; ProteOn XPR36, 25 °C; 10 mM HEPES, 150 mM NaCl, 3.4 mM EDTA, 0.05% Tween 20, pH 7.4; trastuzumab variants captured (approx. 500 RU) on amine-coupled recombinant HER-2 (GLM chip); FcγRs injected as analyte, five concentrations in 3-fold dilution; Equilibrium Fit model, mean of two or three runs. A general note: In SPR one partner is held on a chip, and binding of the other changes the refractive index at the surface.

The target of assay [4] is Control Rituximab v1261 (anti-CD20 rituximab with heterodimerising CH3 mutations, no CH2 mutations) (human). As to the kind of experiment: SPR; ProteOn XPR36, 25 °C; 10 mM HEPES, 150 mM NaCl, 3.4 mM EDTA, 0.05% Tween 20, pH 7.4; rituximab variants captured on amine-coupled goat anti-human Fc; FcγRs injected as analyte, five concentrations in 3-fold dilution; Equilibrium Fit model; ratios against homodimeric trastuzumab WT. This is another data set of the same source.

Assay [5] concerns the target Variant 1051 (control; L234A/L235A on both heavy chains) (human). As to the kind of experiment: SPR; ProteOn XPR36, 25 °C; 10 mM HEPES, 150 mM NaCl, 3.4 mM EDTA, 0.05% Tween 20, pH 7.4; trastuzumab variants captured (approx. 500 RU) on amine-coupled recombinant HER-2 (GLM chip); FcγRs injected as analyte, five concentrations in 3-fold dilution; Equilibrium Fit model, mean of two or three runs. This is another data set of the same source.

Assay [6] addresses Variant 791 (trastuzumab with heterodimerising CH3 mutations only, no CH2 mutations) (human). Described as above. This is another data set of the same source.

Read-outs that look alike come from different tables or passages of the source.

Chain of Control Rituximab v1261 (anti-CD20 rituximab with heterodimerising CH3 mutations, no CH2 mutations) (human) (heavy, as listed by the source, chain 1 of 2): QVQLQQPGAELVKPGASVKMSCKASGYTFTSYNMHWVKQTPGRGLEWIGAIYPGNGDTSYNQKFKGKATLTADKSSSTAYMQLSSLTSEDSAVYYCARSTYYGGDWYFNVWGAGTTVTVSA
Chain of Control Rituximab v1261 (anti-CD20 rituximab with heterodimerising CH3 mutations, no CH2 mutations) (human) (light, as listed by the source, chain 2 of 2): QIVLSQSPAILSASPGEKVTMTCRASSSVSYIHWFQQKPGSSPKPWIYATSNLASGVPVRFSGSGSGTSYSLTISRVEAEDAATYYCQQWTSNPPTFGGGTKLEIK

In the case of “FcγR 1a (CD64) (from UniProt P12314 16-374) (receptor)”, the Kamut/KaWT (WT: homodimeric trastuzumab) in assay [1] was found to be 0.01.

In the case of “FcγR 2aH (from UniProt P12318 34-317) (receptor)”, the Kamut/KaWT (WT: homodimeric trastuzumab) in assay [2] came out at 1.9; in assay [1] it was 0.06; in assay [3], 1.7.

Take “FcγR 2b (from UniProt P31994 43-310) (receptor)”: the results for the Kamut/KaWT (WT: homodimeric trastuzumab) in assay [2] and in assay [1] were 1.9 and 0.52, respectively.

Take “FcγR 3aF (from UniProt P08637 17-254) (receptor)”: the Kamut/KaWT (WT: homodimeric trastuzumab) amounted to 1.4 in assay [2] and 0.29 in assay [1].

B1: FcγR 2aR, P12318 34-317 (receptor)
chain: QAAAPPKAVLKLEPPWINVLQEDSVTLTCQGARSPESDSIQWFHNGNLIPTHTQPSYRFKANNNDSGEYTCQTGQTSLSDPVHLTVLSEWLVLQTPHLEFQEGETIMLRCHSWKDKPLVKVTFFQNGKSQKFSRLDPTFSIPQANHSHSGDYHCTGNIGYTLFSSKPVTITVQVPSMGSSSPMG
modifications: not checked
In the case of B1, the figures for the Kamut/KaWT (WT: homodimeric trastuzumab) in assay [4], in assay [5] and in assay [6] were 1.5, 0.06 and 1.7, respectively.
